The assay has as its target T1, cynomolgus LAG-3 on CHO cells (cynomolgus).
T1 construct: whole, on cells; also called CHO::cyLAG-3; CHO cells transfected with cynomolgus LAG-3
Kind of assay: FACS on CHO cells transfected with cynomolgus LAG-3.

Procedure: 5×10⁴ cells per well were pre-incubated for 1 h in ice-cold PBS containing 5% fetal calf serum (PBS-FCS). […] Cells were washed twice in ice-cold PBS using centrifugation at 300×g and then incubated with a rabbit anti-lipocalin primary antibody (polyclonal rabbit anti-hTlc, Pieris) for 30 min on ice. Cells were then again washed twice in ice-cold PBS, re-suspended in PBS-FCS and incubated 30 min on ice with an antibody labelled with Alexafluor647 (Jackson Immunologics). Cells were subsequently washed and analyzed using intellicyt IQue Flow cytometer (Intellicyt). Fluorescent data generated by lipocalin mutein binding to LAG-3 expressing cells were analyzed using Forecyt software and resulted geometric fluorescent mean were plotted and fitted using Graphpad software.

B1: benchmark anti-LAG-3 antibody, BMS 986016 (SEQ ID NOs: 5 and 6) (antibody, V domains shown)
VH: QVQLQQWGAGLLKPSETLSLTCAVYGGSFSDYYWNWIRQPPGKGLEWIGEINHRGSTNSNPSLKSRVTLSLDTSKNQFSLKLRSVTAADTAVYYCAFGYSDYEYNWFDPWGQGTLVTVSS
VL: EIVLTQSPATLSLSPGERATLSCRASQSISSYLAWYQQKPGQAPRLLIYDASNRATGIPARFSGSGSGTDFTLTISSLEPEDFAVYYCQQRSNWPLTFGQGTNLEIKR
Take B1: the EC50 (commonly the concentration that produces a half-maximal response) was 21 nM.

The record behind these values is patent US20190031729A1 (Pieris, published 2019).
